In IntAct's records for PubMed 18256029:

B1: Programmed cell death protein 6 (Homo sapiens), O75340 (parent)
chain: MAAYSYRPGPGAGPGPAAGAALPDQSFLWNVFQRVDKDRSGVISDTELQQALSNGTWTPFNPVTVRSIISMFDRENKAGVNFSEFTGVWKYITDWQNVFRTYDRDNSGMIDKNELKQALSGFGYRLSDQFHDILIRKFDRQGRGQIAFDDFIQGCIVLQRLTDIFRRYDTDQDGWIQVSYEQYLSMVFSIV
partner: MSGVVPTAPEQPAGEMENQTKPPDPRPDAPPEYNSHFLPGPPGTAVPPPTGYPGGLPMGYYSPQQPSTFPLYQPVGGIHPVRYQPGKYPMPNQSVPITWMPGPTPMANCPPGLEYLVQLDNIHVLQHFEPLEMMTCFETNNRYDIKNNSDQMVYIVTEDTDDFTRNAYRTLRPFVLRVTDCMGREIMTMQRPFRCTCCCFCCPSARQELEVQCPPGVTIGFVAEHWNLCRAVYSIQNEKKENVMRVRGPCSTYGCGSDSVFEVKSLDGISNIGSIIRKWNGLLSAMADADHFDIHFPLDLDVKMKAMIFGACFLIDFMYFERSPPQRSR
B2: Programmed cell death protein 6 (Homo sapiens), O75340 (parent)
chain: B1 chain
B3: Programmed cell death protein 6 (Homo sapiens), O75340 (parent)
chain: B1 chain
partner: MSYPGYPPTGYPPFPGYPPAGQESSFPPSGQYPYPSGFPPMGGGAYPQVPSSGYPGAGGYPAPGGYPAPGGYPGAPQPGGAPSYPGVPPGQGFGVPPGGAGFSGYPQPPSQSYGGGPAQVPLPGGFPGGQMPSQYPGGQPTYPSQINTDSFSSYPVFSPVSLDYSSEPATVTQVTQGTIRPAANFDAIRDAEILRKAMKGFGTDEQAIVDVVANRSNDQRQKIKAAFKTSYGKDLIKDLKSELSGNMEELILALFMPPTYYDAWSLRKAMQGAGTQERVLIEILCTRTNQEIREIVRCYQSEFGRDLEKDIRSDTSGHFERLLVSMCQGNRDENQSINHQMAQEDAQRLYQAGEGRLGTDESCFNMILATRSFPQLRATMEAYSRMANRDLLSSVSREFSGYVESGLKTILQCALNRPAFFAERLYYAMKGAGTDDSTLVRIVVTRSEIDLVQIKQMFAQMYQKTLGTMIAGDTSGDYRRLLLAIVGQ
B4: Programmed cell death protein 6 (Homo sapiens), O75340 (parent)
chain: B1 chain
partner: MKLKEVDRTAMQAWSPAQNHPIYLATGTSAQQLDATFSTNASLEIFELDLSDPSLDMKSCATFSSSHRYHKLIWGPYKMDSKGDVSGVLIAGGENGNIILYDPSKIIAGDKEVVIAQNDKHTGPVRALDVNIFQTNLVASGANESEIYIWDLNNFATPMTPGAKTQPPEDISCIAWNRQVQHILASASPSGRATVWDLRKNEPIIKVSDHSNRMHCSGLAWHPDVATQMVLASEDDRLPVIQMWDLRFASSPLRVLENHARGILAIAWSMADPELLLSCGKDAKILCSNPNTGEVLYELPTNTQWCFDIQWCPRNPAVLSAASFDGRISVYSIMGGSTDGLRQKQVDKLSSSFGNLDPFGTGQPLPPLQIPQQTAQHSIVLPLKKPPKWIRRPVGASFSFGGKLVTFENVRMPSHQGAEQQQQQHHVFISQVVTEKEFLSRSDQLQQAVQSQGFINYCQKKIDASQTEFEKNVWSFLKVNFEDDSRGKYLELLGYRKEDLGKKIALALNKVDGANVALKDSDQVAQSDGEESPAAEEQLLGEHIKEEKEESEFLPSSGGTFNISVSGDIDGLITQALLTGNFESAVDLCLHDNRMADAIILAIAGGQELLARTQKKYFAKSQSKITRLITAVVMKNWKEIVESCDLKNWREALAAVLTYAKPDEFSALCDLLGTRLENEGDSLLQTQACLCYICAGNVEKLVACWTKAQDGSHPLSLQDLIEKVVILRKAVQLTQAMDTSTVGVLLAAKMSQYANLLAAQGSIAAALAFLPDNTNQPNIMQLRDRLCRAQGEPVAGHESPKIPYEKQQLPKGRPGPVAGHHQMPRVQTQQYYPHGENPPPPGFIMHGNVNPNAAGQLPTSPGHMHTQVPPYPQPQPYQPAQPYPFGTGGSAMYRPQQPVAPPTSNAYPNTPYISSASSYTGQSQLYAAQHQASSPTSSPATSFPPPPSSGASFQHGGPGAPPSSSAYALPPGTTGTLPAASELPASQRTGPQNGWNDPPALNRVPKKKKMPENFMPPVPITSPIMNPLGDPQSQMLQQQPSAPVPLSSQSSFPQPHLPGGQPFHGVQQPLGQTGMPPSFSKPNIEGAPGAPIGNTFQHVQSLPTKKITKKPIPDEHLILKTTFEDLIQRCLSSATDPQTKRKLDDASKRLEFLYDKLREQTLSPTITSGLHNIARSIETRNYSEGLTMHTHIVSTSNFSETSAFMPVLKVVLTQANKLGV

Variants of: B1
Conditions: with pls4_human PLSCR4, Q9NRQ2

Variant	effect of a mutation on the interaction
E47A;E114A	decreasing interaction

Variants of: B2
Conditions: with pls3_human PLSCR3, Q9NRY6
Sequence of pls3_human PLSCR3, Q9NRY6 (Q9NRY6 whole entry): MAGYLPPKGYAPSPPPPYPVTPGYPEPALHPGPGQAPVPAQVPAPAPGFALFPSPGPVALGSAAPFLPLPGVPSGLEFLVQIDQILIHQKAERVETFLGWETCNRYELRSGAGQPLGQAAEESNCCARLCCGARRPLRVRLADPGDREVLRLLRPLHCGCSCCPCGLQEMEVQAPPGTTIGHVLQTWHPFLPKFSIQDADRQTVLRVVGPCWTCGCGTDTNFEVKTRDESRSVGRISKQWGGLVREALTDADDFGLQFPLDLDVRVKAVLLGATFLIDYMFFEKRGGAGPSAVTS

Variant	effect of a mutation on the interaction
E47A;E114A	decreasing interaction

Variants of: B2
Conditions: with pls3_human PLSCR3, Q9NRY6
Remark: another data set of the same source

Variant	effect of a mutation on the interaction
Y91A	disrupting interaction
W95A	disrupting interaction
W57A	decreasing interaction
F60A	disrupting interaction
Y180A	disrupting interaction

Variants of: B2
Conditions: with pdc6i_human PDCD6IP

Variant	effect of a mutation on the interaction
Y91A	disrupting interaction
W95A	disrupting interaction
W57A	decreasing interaction
F60A	disrupting interaction
Y180A	disrupting interaction

Variants of: B2
Conditions: with anx11_human ANXA11, P50995
Sequence of anx11_human ANXA11, P50995 (P50995 whole entry): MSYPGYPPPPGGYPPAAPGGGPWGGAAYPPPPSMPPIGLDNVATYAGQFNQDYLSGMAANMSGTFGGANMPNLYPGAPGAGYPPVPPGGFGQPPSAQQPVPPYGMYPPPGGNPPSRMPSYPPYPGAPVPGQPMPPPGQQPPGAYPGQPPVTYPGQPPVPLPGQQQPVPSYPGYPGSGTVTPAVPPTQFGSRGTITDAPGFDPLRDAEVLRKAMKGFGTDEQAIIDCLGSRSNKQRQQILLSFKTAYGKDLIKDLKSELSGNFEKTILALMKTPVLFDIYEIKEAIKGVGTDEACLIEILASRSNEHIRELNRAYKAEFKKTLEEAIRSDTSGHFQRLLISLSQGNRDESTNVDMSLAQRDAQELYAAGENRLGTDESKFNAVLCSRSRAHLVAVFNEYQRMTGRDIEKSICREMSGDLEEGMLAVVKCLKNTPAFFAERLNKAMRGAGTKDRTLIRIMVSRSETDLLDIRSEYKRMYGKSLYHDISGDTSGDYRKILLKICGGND

Variant	effect of a mutation on the interaction
Y91A	disrupting interaction
W95A	disrupting interaction
W57A	decreasing interaction
F60A	disrupting interaction
Y180A	disrupting interaction

Variants of: B2
Conditions: with ts101_human TSG101, Q99816
Sequence of ts101_human TSG101, Q99816 (Q99816 whole entry): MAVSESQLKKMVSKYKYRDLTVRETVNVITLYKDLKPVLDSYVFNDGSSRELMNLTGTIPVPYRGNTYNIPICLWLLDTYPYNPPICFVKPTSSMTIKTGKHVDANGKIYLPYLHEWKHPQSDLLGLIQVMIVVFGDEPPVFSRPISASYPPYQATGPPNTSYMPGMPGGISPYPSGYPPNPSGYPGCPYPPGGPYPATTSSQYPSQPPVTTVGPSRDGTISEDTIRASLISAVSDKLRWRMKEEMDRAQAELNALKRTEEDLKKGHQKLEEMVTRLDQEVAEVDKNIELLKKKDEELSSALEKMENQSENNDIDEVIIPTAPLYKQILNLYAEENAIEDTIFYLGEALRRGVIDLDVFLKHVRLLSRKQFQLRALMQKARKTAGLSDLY

Variant	effect of a mutation on the interaction
W95A	disrupting interaction
Y180A	disrupting interaction

Variants of: B3
Conditions: with anxa7_human ANXA7, P20073

Variant	effect of a mutation on the interaction
F60A	disrupting interaction
Y180A	disrupting interaction
W57A	decreasing interaction
Y91A	disrupting interaction
W95A	disrupting interaction

Variants of: B4
Conditions: with sc31a_human SEC31A

Variant	effect of a mutation on the interaction
F60A	disrupting interaction
